Positions count from the first letter of the chain named.
B1: 114 (protein)
chain: LDNGLARTPTMGWLHWERFMCNLDCQEEPDSCISEKLFMEMAELMVSEGWKDAGYEYLCIDDCWMAPQRDSEGRLQADPQRFPHGIRQLANYVHSKGLKLGIYADVGNKTCAGFPGSFGYYDIDAQTFADWGVDLLKFDGCYCDSLENLADGYKHMSLALNRTGRSIVYSCEWPLYMWPFQKPNYTEIRQYCNHWRNFADIDDSWKSIKSILDWTSFNQERIVDVAGPGGWNDPDMLVIGNFGLSWNQQVTQMALWAIMAAPLFMSNDLRHISPQAKALLQDKDVIAINQDPLGKQGYQLRQGDNFEVWERPLSGLAWAVAMINRQEIGGPRSYTIAVASLGKGVACNPACFITQLLPVKRKLGFYEWTSRLRSHINPTGTVLLQLENTMQMSKDLRL
modifications: Synthetic Polypeptide sequence of Variant No. 114 of mature Human GLA
B2: 119 (protein)
chain: B1 chain with R397L, L398Q
modifications: Synthetic Polypeptide sequence of Variant No. 119 of mature Human GLA
B3: 117 (protein)
chain: B1 chain with R397L, L398G
modifications: Synthetic Polypeptide sequence of Variant No. 117 of mature Human GLA
B4: 118 (protein)
chain: B1 chain with R397L, L398N
modifications: Synthetic Polypeptide sequence of Variant No. 118 of mature Human GLA
B5: 116 (protein)
chain: B1 chain with R397L, L398E
modifications: Synthetic Polypeptide sequence of Variant No. 116 of mature Human GLA
B6: 115 (protein)
chain: B1 chain with R397T
modifications: Synthetic Polypeptide sequence of Variant No. 115 of mature Human GLA

Experiment: HTP-analysis of yeast culture supernatants, no challenge (MUGal hydrolysis)
Format: biochemical
Details: activity of the variant/activity of WT GLA (SEQ ID NO: 5), yeast supernatant
Procedure, shortened: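 Activity read as 4-methylumbelliferyl α-D-galactopyranoside hydrolysis: fluorescence (355/448 nm) after sodium carbonate stop, following 30-180 min at 37° C with 2 mM MUGal stock at pH 4.6–4.8. Enzyme source is unchallenged culture supernatant of INVSc1 yeast expressing GLA variants, grown 66-84 h at 30° C.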

| Molecule | Relative Activity of GLA Variants After No Challenge (NC) |
| --- | --- |
| B1 | ++ (++ = >1.5 to 2.5 relative activity over WT GLA (SEQ ID NO: 5)) |
| B2 | ++ (++ = >1.5 to 2.5 relative activity over WT GLA (SEQ ID NO: 5)) |
| B3 | ++ (++ = >1.5 to 2.5 relative activity over WT GLA (SEQ ID NO: 5)) |
| B4 | ++ (++ = >1.5 to 2.5 relative activity over WT GLA (SEQ ID NO: 5)) |
| B5 | ++ (++ = >1.5 to 2.5 relative activity over WT GLA (SEQ ID NO: 5)) |
| B6 | ++ (++ = >1.5 to 2.5 relative activity over WT GLA (SEQ ID NO: 5)) |

Experiment: HTP-analysis of supernatants pretreated with acid (MUGal hydrolysis)
Format: biochemical
Details: challenge at pH 4.2; activity of the variant/activity of WT GLA (SEQ ID NO: 5); yeast supernatant
Procedure, shortened: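 GLA variants were secreted from INVSc1 yeast grown 66-84 h at 30° C. in SD-Ura with 2% glucose; supernatants were mixed with McIlvaine buffer pH 3.3-4.3 and held at 37° C. for 1-3 h. Residual activity on MUGal at pH 4.8 was then measured by fluorescence.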

| Molecule | Relative Activity of GLA Variants After Challenge at pH 4.2 |
| --- | --- |
| B1 | ++ (++ = >1.5 to 2.5 relative activity over WT GLA (SEQ ID NO: 5)) |
| B2 | ++ (++ = >1.5 to 2.5 relative activity over WT GLA (SEQ ID NO: 5)) |
| B3 | ++ (++ = >1.5 to 2.5 relative activity over WT GLA (SEQ ID NO: 5)) |
| B4 | ++ (++ = >1.5 to 2.5 relative activity over WT GLA (SEQ ID NO: 5)) |
| B5 | ++ (++ = >1.5 to 2.5 relative activity over WT GLA (SEQ ID NO: 5)) |
| B6 | ++ (++ = >1.5 to 2.5 relative activity over WT GLA (SEQ ID NO: 5)) |

Experiment: HTP-analysis of supernatants pretreated with base (MUGal hydrolysis)
Format: biochemical
Details: challenge at pH 7.1; activity of the variant/activity of WT GLA (SEQ ID NO: 5); yeast supernatant
Procedure, shortened: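 Supernatants from INVSc1 yeast expressing GLA variants (SD-Ura, 66-84 h, 30° C) were mixed with McIlvaine buffer pH 7.0-8.2 or 200 mM sodium bicarbonate pH 9.1-9.7 and held 1-18 h at 37° C. Residual activity was then measured on MUGal at pH 4.8/4.3, 37° C, 30-180 min, by fluorescence (Ex 355/Em 448 nm).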

| Molecule | Relative Activity of GLA Variants After Challenge at pH 7.1 |
| --- | --- |
| B1 | ++ (++ = >1.5 to 2.5 relative activity over WT GLA (SEQ ID NO: 5)) |
| B2 | ++ (++ = >1.5 to 2.5 relative activity over WT GLA (SEQ ID NO: 5)) |
| B3 | ++ (++ = >1.5 to 2.5 relative activity over WT GLA (SEQ ID NO: 5)) |
| B4 | ++ (++ = >1.5 to 2.5 relative activity over WT GLA (SEQ ID NO: 5)) |
| B5 | ++ (++ = >1.5 to 2.5 relative activity over WT GLA (SEQ ID NO: 5)) |
| B6 | +++ (+++ = >2.5 relative activity over WT GLA (SEQ ID NO: 5)) |

From US11278600B2, “Human alpha-galactosidase variants” (Codexis, Inc., priority 2014, dated 2022)
